The experiment has as its target T1, HuT-78 cells that naturally express human CCR8 (Homo sapiens, UniProt P51685).
T1 construct: HuT-78 cells that naturally express human CCR8 were used as target cells; endogenous in cells; host or cells: HuT-78
Description: Flow cytometry binding of yeast-display optimized VHH-Fc antibodies to HuT-78 cells. The note with it: Table 13; for EC50: clones tested as VHH-Fc fusions (human IgG1 Fc), HuT-78 cells; for Normalized Bmax (%): normalized to VHH-1 or VHH-2 depending on clone family. From the text: Top VHH sequences were chosen from the FACS sorted populations based on an analysis of improved binding performance relative to the parental sequences and evidence of sequence enrichment by NGS. Candidate VHH were then cloned as VHH-Fc fusions to the short hinge of the IgG1 Fc domain (SEQ ID NO: 34), expressed in HEK293 cells as described earlier and purified for binding evaluation. Bmax values are shown as normalized to VHH-1 or VHH-2 depending on the clone family. […] Mutations are referenced by position according to the IMGT definition.

T1 sequence (P51685 whole entry): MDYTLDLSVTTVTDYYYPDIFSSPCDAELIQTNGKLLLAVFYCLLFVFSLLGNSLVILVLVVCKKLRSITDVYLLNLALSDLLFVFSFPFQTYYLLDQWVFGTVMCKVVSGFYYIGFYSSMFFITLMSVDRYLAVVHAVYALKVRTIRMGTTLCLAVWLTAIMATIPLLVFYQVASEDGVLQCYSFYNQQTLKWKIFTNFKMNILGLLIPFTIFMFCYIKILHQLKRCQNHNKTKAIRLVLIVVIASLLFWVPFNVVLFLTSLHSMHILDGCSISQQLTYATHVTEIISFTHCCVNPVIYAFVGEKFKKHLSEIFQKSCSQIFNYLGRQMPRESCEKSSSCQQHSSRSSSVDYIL

B1: VHH-1.3-3: VHH-1.3 variant I39Y, G40S, R55W, SEQ ID NO: 188; tested as Fc fusion (protein)
VHH: EVQLVESGGGLVQPGGSLRLSCAASGSTSSIRRYSWYRQAPGKGRELVAWFSSGGGTNYADSVKGRFTISGDNSKNTMYLQMNSLRAEDTAVYYCSARRLLGTSRVDYWGQGTQVTVSS
Take B1: the EC50 was 1.81 nM and the “Normalized Bmax (%)” value worked out at 104.4%.

B2: VHH-1.3-10: VHH-1.3 variant T65I, L110V, SEQ ID NO: 195; tested as Fc fusion (protein)
VHH: QVQLQESGGGLVQPGGSLRLSCAASGSTSSIRRIGWYRQAPGKGRELVARFSSGGGINYADSVKGRFTISGDNSKNTMYLQMNSLRAEDTAVYYCSARRLVGTSRVDYWGQGTQVTVSS
As to B2, the EC50 worked out at 1.3 nM and the “Normalized Bmax (%)” value came out at 125.4%.

B3: VHH-1.3-7: VHH-1.3 variant A25V, R55H, N82K, SEQ ID NO: 192; tested as Fc fusion (protein)
VHH: EVQLVESGGGLVQPGGSLRLSCAVSGSTSSIRRIGWYRQAPGKGRELVAHFSSGGGTNYADSVKGRFTISGDKSKNTMYLQMNSLRAEDTAVYYCSARRLLGTSRVDYWGQGTTVTVSS
On to B3, for which the midpoint of the response, the EC50, lay at 0.56 nM and the “Normalized Bmax (%)” value amounted to 111.8%.

B4: VHH-1.3-16: VHH-1.3 variant S35T, R37V, G64S, R108I, SEQ ID NO: 201; tested as Fc fusion (protein)
VHH: EVQLVESGGGLVQPGGSLRLSCAASGSTSTIVRIGWYRQAPGKGRELVARFSSGGSTNYADSVKGRFTISGDNSKNTMYLQMNSLRAEDTAVYYCSARILLGTSRVDYWGQGTTVTVSS
For the molecule B4, a half-maximal effect (EC50) was put at 3.1 nM and the “Normalized Bmax (%)” value was 79.0%.

B5: VHH-1.3-11: VHH-1.3 variant G64T, SEQ ID NO: 196; tested as Fc fusion (protein)
VHH: QVQLQESGGGLVQPGGSLRLSCAASGSTSSIRRIGWYRQAPGKGRELVARFSSGGTINYADSVKGRFTISGDNSKNTMYLQMNSLRAEDTAVYYCSARRLLGTSRVDYWGQGTQVTVSS
On to B5, for which it took 0.61 nM to reach a half-maximal effect (EC50) and the “Normalized Bmax (%)” value stood at 79.6%.

B6: VHH-1.3-4: VHH-1.3 variant R38T, R108I, SEQ ID NO: 189; tested as Fc fusion (protein)
VHH: EVQLVESGGGLVQPGGSLRLSCAASGSTSSIRTIGWYRQAPGKGRELVARFSSGGGTNYADSVKGRFTISGDNSKNTMYLQMNSLRAEDTAVYYCSARILLGTSRVDYWGQGTTVTVSS
On to B6, for which a half-maximal effect (EC50) was put at 7.68 nM and the “Normalized Bmax (%)” value is recorded as 82.4%.

B7: VHH-1.3-20: VHH-1.3 variant A25V, R38G, S57I, R108I, SEQ ID NO: 205; tested as Fc fusion (protein)
VHH: EVQLVESGGGLVQPGGSLRLSCAVSGSTSSIRGIGWYRQAPGKGRELVARFISGGGTNYADSVKGRFTISGDNSKNTMYLQMNSLRAEDTAVYYCSARILLGTSRVDYWGQGTQVTVSS
On to B7, for which the EC50 was 0.49 nM and the “Normalized Bmax (%)” value was determined as 107.6%.

B8: VHH-1.3-15: VHH-1.3 variant S58G, SEQ ID NO: 200; tested as Fc fusion (protein)
VHH: EVQLVESGGGLVQPGGSLRLSCAASGSTSSIRRIGWYRQAPGKGRELVARFSGGGGTNYADSVKGRFTISGDNSKNTMYLQMNSLRAEDTAVYYCSARRLLGTSRVDYWGQGTTVTVSS
Take B8: the concentration for a half-maximal effect (EC50) worked out at 2.82 nM and the “Normalized Bmax (%)” value is 107.1%.

B9: VHH-1.3-18: VHH-1.3 variant A25V, R38G, S57I, N83K, SEQ ID NO: 203; tested as Fc fusion (protein)
VHH: EVQLVESGGGLVQPGGSLRLSCAVSGSTSSIRGIGWYRQAPGKGRELVARFISGGGTNYADSVKGRFTISGDKSKNTMYLQMNSLRAEDTAVYYCSARRLLGTSRVDYWGQGTTVTVSS
In the case of B9, the concentration for a half-maximal effect (EC50) was found to be 0.31 nM and the “Normalized Bmax (%)” value is 113.4%.

B10: VHH-1.3-5: VHH-1.3 variant R55G, SEQ ID NO: 190; tested as Fc fusion (protein)
VHH: EVQLVESGGGLVQPGGSLRLSCAASGSTSSIRRIGWYRQAPGKGRELVAGFSSGGGTNYADSVKGRFTISGDNSKNTMYLQMNSLRAEDTAVYYCSARRLLGTSRVDYWGQGTTVTVSS
As for B10, the EC50 was 4.42 nM and the “Normalized Bmax (%)” value came out at 90.1%.

B11: VHH-1.3-14: VHH-1.3 variant G64S, L110V, SEQ ID NO: 199; tested as Fc fusion (protein)
VHH: EVQLVESGGGLVQPGGSLRLSCAASGSTSSIRRIGWYRQAPGKGRELVARFSSGGSINYADSVKGRFTISGDNSKNTMYLQMNSLRAEDTAVYYCSARRLVGTSRVDYWGQGTQVTVSS
Regarding B11, the half-maximal effective concentration (EC50) amounted to 0.9 nM and the “Normalized Bmax (%)” value is 131.9%.

B12: VHH-1.3-21: VHH-1.3 variant A25V, R38G, S57I, G81A, SEQ ID NO: 206; tested as Fc fusion (protein)
VHH: EVQLVESGGGLVQPGGSLRLSCAVSGSTSSIRGIGWYRQAPGKGRELVARFISGGGTNYADSVKGRFTISADNSKNTMYLQMNSLRAEDTAVYYCSARRLLGTSRVDYWGQGTQVTVSS
With B12, the response was half-maximal at 1.62 nM (EC50) and the “Normalized Bmax (%)” value was determined as 133.9%.

B13: VHH-1.3-19: VHH-1.3 variant A25V, R38G, R55H, N83K, SEQ ID NO: 204; tested as Fc fusion (protein)
VHH: EVQLVESGGGLVQPGGSLRLSCAVSGSTSSIRGIGWYRQAPGKGRELVAHFSSGGGTNYADSVKGRFTISGDKSKNTMYLQMNSLRAEDTAVYYCSARRLLGTSRVDYWGQGTQVTVSS
As for B13, the response was half-maximal at 0.45 nM (EC50) and the “Normalized Bmax (%)” value was found to be 130.0%.

B14: VHH-1.3-6: VHH-1.3 variant R55H, SEQ ID NO: 191; tested as Fc fusion (protein)
VHH: EVQLVESGGGLVQPGGSLRLSCAASGSTSSIRRIGWYRQAPGKGRELVAHFSSGGGTNYADSVKGRFTISGDNSKNTMYLQMNSLRAEDTAVYYCSARRLLGTSRVDYWGQGTTVTVSS
Consider B14, for which a half-maximal response (EC50) required 3.75 nM and the “Normalized Bmax (%)” value is recorded as 97.0%.

B15: VHH-1.3-12: VHH-1.3 variant S28F, G64T, L110Y, SEQ ID NO: 197; tested as Fc fusion (protein)
VHH: EVQLVESGGGLVQPGGSLRLSCAASGFTSSIRRIGWYRQAPGKGRELVARFSSGGTTNYADSVKGRFTISGDNSKNTMYLQMNSLRAEDTAVYYCSARRLYGTSRVDYWGQGTQVTVSS
B15: the 50% effective concentration (EC50) was found to be 1.24 nM and the “Normalized Bmax (%)” value is recorded as 79.6%.

B16: VHH-1.3-17: VHH-1.3 variant R37V, R55H, R108I, N83K, SEQ ID NO: 202; tested as Fc fusion (protein)
VHH: EVQLVESGGGLVQPGGSLRLSCAVSGSTSSIVRIGWYRQAPGKGRELVAHFSSGGGTNYADSVKGRFTISGDKSKNTMYLQMNSLRAEDTAVYYCSARILLGTSRVDYWGQGTTVTVSS
Turning to B16, the EC50 was found to be 0.67 nM and the “Normalized Bmax (%)” value amounted to 72.8%.

B17: VHH-1.3-13: VHH-1.3 variant A25V, R38G, S57I, SEQ ID NO: 198; tested as Fc fusion (protein)
VHH: EVQLVESGGGLVQPGGSLRLSCAVSGSTSSIRGIGWYRQAPGKGRELVARFISGGGTNYADSVKGRFTISGDNSKNTMYLQMNSLRAEDTAVYYCSARRLLGTSRVDYWGQGTQVTVSS
As to B17, the EC50 turned out to be 0.38 nM and the “Normalized Bmax (%)” value was 91.1%.

B18: VHH-2.3-1: VHH-2.3 variant D81G, SEQ ID NO: 207; tested as Fc fusion (protein)
VHH: EVQLVESGGGLVQPGGSLRLSCAVSGSTSTINRFAWYRQAPGKGRELVAATSSRTSPNYADSVKGRFTFSRGNSKNTVYLQMNSLRAEDTAVYYCQARMAMGSSQVVYWGQGTTVTVSS
In the case of B18, the response was half-maximal at 0.23 nM (EC50) and the “Normalized Bmax (%)” value is listed as 118.3%.

B19: VHH-2.3-2: VHH-2.3 variant D81G, M108K, SEQ ID NO: 208; tested as Fc fusion (protein)
VHH: EVQLVESGGGLVQPGGSLRLSCAVSGSTSTINRFAWYRQAPGKGRELVAATSSRTSPNYADSVKGRFTFSRGNSKNTVYLQMNSLRAEDTAVYYCQARKAMGSSQVVYWGQGTTVTVSS
As for B19, it took 0.12 nM to reach a half-maximal effect (EC50) and the “Normalized Bmax (%)” value amounted to 131.9%.

B20: VHH-2.3-3: VHH-2.3 variant P65L, SEQ ID NO: 209; tested as Fc fusion (protein)
VHH: EVQLVESGGGLVQPGGSLRLSCAVSGSTSTINRFAWYRQAPGKGRELVAATSSRTSLNYADSVKGRFTFSRDNSKNTVYLQMNSLRAEDTAVYYCQARMAMGSSQVVYWGQGTTVTVSS
Turning to B20, the EC50 was 1.7 nM and the “Normalized Bmax (%)” value worked out at 83.3%.

For the origin of these results see patent US20250092146A1, “ANTI-CCR8 ANTIBODIES, CONJUGATES, AND USES THEREOF” (Abilita Bio, Inc., priority 2023, published 2025).
